Assay results: publication PMC9822811

Molecular target: recombinant SARS-CoV-2 RBD of original WT strain (SARS-CoV-2) (UniProt P0DTC2)
Assay: SPR

REGN-10933 gave a Kd of 0.576 nM.
